From publication PMC12062237, “Phosphate-binding pocket on cyclin B governs CDK substrate phosphorylation and mitotic timing” (Nature Communications, 2025)

T1: Clb2 (aa 187-491), wild-type (S. cerevisiae, UniProt P24869 187-491)
T1 construct: Clb2, major mitotic B-type cyclin of S. cerevisiae, aa 187-491; also called wild-type Clb2; source: E. coli BL21(DE3) Star, pET28, purified (Ni-NTA, S200 gel filtration)
T1 sequence (looked up): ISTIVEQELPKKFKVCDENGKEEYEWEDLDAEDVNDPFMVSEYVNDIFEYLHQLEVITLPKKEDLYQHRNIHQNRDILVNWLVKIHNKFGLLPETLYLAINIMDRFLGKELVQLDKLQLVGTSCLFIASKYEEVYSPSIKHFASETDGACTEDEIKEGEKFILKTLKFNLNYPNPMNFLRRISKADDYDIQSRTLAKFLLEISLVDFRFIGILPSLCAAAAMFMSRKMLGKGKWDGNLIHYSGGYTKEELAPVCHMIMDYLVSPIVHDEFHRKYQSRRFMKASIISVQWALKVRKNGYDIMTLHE

T2: Clb2-pp mutant (R366A, R379A, K383A), aa 187-491 (S. cerevisiae, UniProt P24869 187-491, R366A | R379A | K383A)
T2 construct: also called PP mutant Clb2; source: E. coli BL21(DE3) Star, pET28, purified (Ni-NTA, S200 gel filtration)
T2 sequence (looked up): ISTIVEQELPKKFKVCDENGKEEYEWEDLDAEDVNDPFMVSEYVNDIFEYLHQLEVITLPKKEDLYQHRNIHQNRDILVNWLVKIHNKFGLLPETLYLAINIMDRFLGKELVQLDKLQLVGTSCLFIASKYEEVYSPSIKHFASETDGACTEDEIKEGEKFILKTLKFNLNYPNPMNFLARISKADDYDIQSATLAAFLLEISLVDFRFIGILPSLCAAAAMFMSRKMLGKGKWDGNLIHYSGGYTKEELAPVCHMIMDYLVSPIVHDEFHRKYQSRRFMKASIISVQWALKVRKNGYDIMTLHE


Columns and labels:
Details in all cases: both partners purified
[1] = target: T1, Clb2 (aa 187-491), wild-type; assay: reconstitution of an active kinase complex by mixing; 10.5 uM Cak1-phosphorylated Cdk1 and 10.5 uM Clb2, on ice 60 min, then desalted; the complex is known by its kinase activity only
[2] = target: T2, Clb2-pp mutant (R366A, R379A, K383A), …; assay: as above
[3] = target: T3, Clb2-Cdk1 complex, Clb2-pp mutant (S. cerevisiae, UniProt P24869 187-491; P00546 1-298, R366A | R379A | K383A, phosphothreonine at 169 (by Cak1)); assay: reconstitution of an active kinase complex by mixing; Clb2-Cdk1 combined with equimolar Cks1; no separate test of association
T3 construct: Clb2 of S. cerevisiae, aa 187-491, phosphate-pocket mutant; Cdk1 (Cdc28) of S. cerevisiae, made as a GST-TEV-Cdk1 fusion; formed before Cks1 was added; also called clb2-pp Clb2-Cdk1; PP mutant Clb2-Cdk1; source: assembled from purified Clb2-pp (E. coli) and purified Cak1-phosphorylated Cdk1 (Sf9), desalted

[4] = target: T4, Clb2-Cdk1 complex, wild-type Clb2 (S. cerevisiae, UniProt P24869 187-491; P00546 1-298, phosphothreonine at 169 (by Cak1)); assay: as above
T4 construct: Clb2 of S. cerevisiae, aa 187-491; Cdk1 (Cdc28) of S. cerevisiae, made as a GST-TEV-Cdk1 fusion; formed before Cks1 was added; also called wild-type Clb2-Cdk1; active Clb2-Cdk1; source: assembled from purified Clb2 (E. coli) and purified Cak1-phosphorylated Cdk1 (Sf9), desalted
T4 sequence (P00546 whole entry, the tested form may be a part, one chain of several): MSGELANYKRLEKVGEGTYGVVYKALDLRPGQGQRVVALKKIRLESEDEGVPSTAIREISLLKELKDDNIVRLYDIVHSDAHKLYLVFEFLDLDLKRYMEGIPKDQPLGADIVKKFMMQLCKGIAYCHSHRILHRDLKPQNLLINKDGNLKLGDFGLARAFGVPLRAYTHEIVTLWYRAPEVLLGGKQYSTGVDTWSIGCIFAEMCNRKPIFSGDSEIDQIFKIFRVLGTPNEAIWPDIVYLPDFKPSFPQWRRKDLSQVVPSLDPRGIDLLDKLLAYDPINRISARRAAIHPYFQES

T3 sequence (P00546 whole entry, stated change not applied, the tested form may be a part, one chain of several): as the sequence (P00546 whole entry, the tested form may be a part, one chain of several) above

Binder	binding result [1]	binding result [2]	binding result [3]	binding result [4]
Cdk1 (Cdc28), T169-phosphorylated (enzyme, phosphothreonine at 169 (by Cak1), Cdk1 (Cdc28) of S. cerevisiae, made as a GST-TEV-Cdk1 fusion; no TEV cleavage is described; the pooled fractions are called GST-Cdk1; also called GST-Cdk1; phosphorylated Cdk1; source: Sf9, baculovirus, purified (Glutathione Sepharose, S200 gel filtration); phosphorylated with purified Cak1) not shown	binds	binds	–	–
Cks1, wild-type (natural protein, S. cerevisiae, UniProt P20486 1-150, looked up, Cks1 of S. cerevisiae; also called wild-type Cks1; source: E. coli BL21(DE3) Star, purified (boiling, ammonium sulfate, S200 gel filtration)) MYHHYHAFQGRKLTDQERARVLEFQDSIHYSPRYSDDNYEYRHVMLPKAMLKVIPSDYFNSEVGTLRILTEDEWRGLGITQSLGWEHYECHAPEPHILLFKRPLNYEAELRAATAAAQQQQQQQQQQQQQQQQHQTQSISNDMQVPPQIS	–	–	binds	binds
Cks1 mutant (R33E, S82E, R102A) (natural protein, S. cerevisiae, UniProt P20486 1-150, looked up, also called mutant Cks1; source: E. coli BL21(DE3) Star, purified (boiling, ammonium sulfate, S200 gel filtration)) MYHHYHAFQGRKLTDQERARVLEFQDSIHYSPEYSDDNYEYRHVMLPKAMLKVIPSDYFNSEVGTLRILTEDEWRGLGITQELGWEHYECHAPEPHILLFKAPLNYEAELRAATAAAQQQQQQQQQQQQQQQQHQTQSISNDMQVPPQIS	–	–	binds	binds
